Laboratory results from US20210061875A1.

How the values were obtained:
[1] = target: ovalbumin 323-329 peptide (OVA323-339) in the context of I-A(b) (murine) (UniProt P01012)
[2] = target: ovalbumin 323-329 peptide (OVA323-339) in the context of I-A(b) (murine) (UniProt P01012); remark: listed apart in the source
[3] = target: myelin oligodendrocyte glycoprotein 35-55 peptide (MOG35-55) in the context of I-A(b) (mouse; murine) (UniProt P14434)
[4] = target: myelin oligodendrocyte glycoprotein 35-55 peptide (MOG35-55) in the context of I-A(b) (mouse; murine) (UniProt P14434); remark: listed apart in the source

Substance | Ratio of MOG/OVA pulsed APC (in vivo cytotoxicity, spleen after 48 hours) (ratio of MOG/OVA pulsed APC) [1] | Cytotoxicity (specific lysis of peptide-pulsed splenocytes, in vitro, 3 days) [2] [%] | Cytotoxicity (specific lysis of peptide-pulsed splenocytes, in vitro, 3 days) [3] [%] | Ratio of MOG/OVA pulsed APC (in vivo cytotoxicity, spleen after 48 hours) (ratio of MOG/OVA pulsed APC) [4]
OT-II TCR | 6.2 | 32 | 4 | 
2D2 TCR |  | 3 | 17 | 0.7
